Holding throughout (type): biochemical
The test system of one assay is βH crystallin. The experiment in a line: Chaperone assay, thermal aggregation of βH crystallin at 50° C. The following applies: 50:1 molar ratio of peptide:βH crystallin, sixty minutes, 340 nm. As for the experimental part: (§1) The chaperone activity of the peptides was measured as their ability to protect against the thermal aggregation of three chaperone target proteins βH crystallin, ADH and CS in chaperone assays performed at 50° C. (FIG. 19). A non-interactive αB crystallin sequence 111HGKHEERQDE120 was used as the negative control in the chaperone assays (FIG. 19). Based on near and far UVCD, the three target proteins unfolded in the order: CS>>>ADH>>βH crystallin when they were heated at 50° C. for sixty minutes (FIGS. 15 and 16). The thermal aggregation of βH crystallin, ADH and CS was measured as light scattering at λ=340 nm in the presence and absence of each peptide. The chaperone activity of each peptide was calculated as percent protection in which the aggregation of each target protein in the absence of any peptides was set at 0% protection (FIG. 19). The interactive peptides […] and 131LTITSSLSDGV141 were effective inhibitors of aggregation of all three chaperone target proteins.
(§2) A (top left): thermal aggregation of chaperone target proteins βH crystallin, ADH and CS in the absence of peptides was measured as light scattering at λ=340 nm. Each target protein was heated at 50° C. for sixty minutes in the absence or presence of one of the peptides. […] The chaperone activity of each peptide was calculated as percent protection in which the aggregation of each target protein in the absence of any peptides was set at 0% protection. The ability of the 73DRFSVNLDVKHFS85, 131LTITSSLSDGV141 and 111HGKHEERQDE120 to protect against the thermal aggregation of βH crystallin (B: top right), ADH (C: bottom left) and CS (D: bottom right) were tested in vitro (vertical bars). […] A 10:1 molar ratio of peptide:target protein was sufficient in conferring significant protection against the aggregation of CS by 73DRFSVNLDVKHFS85 and 131LTITSSLSDGV141.

Another assay deals with ADH (Equus caballus, UniProt P00327). In words: Chaperone assay, thermal aggregation of ADH at 50° C. The conditions noted are these: 50:1 molar ratio of peptide:ADH, sixty minutes, 340 nm. As for the experimental part: as §1, §2
The target of the next assay is T1, CS (Sus scrofa, UniProt P00889).
T1 sequence (P00889 28-464): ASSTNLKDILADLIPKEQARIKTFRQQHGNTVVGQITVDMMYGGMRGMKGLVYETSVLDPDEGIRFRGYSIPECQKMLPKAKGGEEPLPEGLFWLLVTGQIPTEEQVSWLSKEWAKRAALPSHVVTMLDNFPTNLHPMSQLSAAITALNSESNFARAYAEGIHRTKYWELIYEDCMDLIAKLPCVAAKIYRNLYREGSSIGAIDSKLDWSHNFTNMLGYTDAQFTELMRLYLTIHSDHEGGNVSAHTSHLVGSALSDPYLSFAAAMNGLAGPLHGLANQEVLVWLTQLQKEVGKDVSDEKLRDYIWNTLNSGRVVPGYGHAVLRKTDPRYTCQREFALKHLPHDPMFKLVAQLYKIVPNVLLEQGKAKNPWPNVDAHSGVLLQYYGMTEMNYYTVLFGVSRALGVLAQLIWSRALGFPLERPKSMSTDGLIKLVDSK
The experiment in a line: Chaperone assay, thermal aggregation of CS at 50° C. The following applies: 10:1 molar ratio of peptide:CS, sixty minutes, 340 nm. As for the experimental part:
as §1
A (top left): thermal aggregation of chaperone target proteins βH crystallin, ADH and CS in the absence of peptides was measured as light scattering at λ=340 nm. […] The chaperone activity of each peptide was calculated as percent protection in which the aggregation of each target protein in the absence of any peptides was set at 0% protection. […]

A further assay addresses T2, β2-microglobulin (β2m) (Homo sapiens, UniProt P61769).
T2 construct: purchased MP Biomedical
In words: β2-microglobulin fibrillation ThT assay. The following applies: five αB crystallin peptides and control. As for the experimental part:
Addition of 5.8 μM αB crystallin peptides, ST, DR, LT, HG, and ER decreased the ThT fluorescence of β2m by 40-64%. When the concentration of the αB crystallin peptides was increased to 29 μM and 145 μM, no further decrease in ThT fluorescence was observed. The negative control peptide AT1 had no effect on β2m fibrillation even at a concentration as high as 290 μM. All five αB crystallin peptides inhibited β2m fibrillation at sub-stoichometric and stoichometric concentrations (5.8 μM and 29 μM).
The Thioflavin T (ThT) fluorescence of β2m in the presence of varying concentrations of αB crystallin peptides and controls was measured. […] When the concentration of the peptides was increased to 29 μM (1:1::peptide:β2m), the αB crystallin peptides decreased the ThT fluorescence by 35-65%. When the concentration of the peptides was increased further to 145 μM ([…]), the αB crystallin peptides decreased the ThT fluorescence by 13-27%. […] The formation and inhibition of β2-microglobulin fibrils was verified microscopically.
β2-microglobulin fibrillation ThT assays were performed as described previously. Raman et al., Biochem J 392:573-81, 2005; Ivanova et al., Proc Natl Acad Sci USA 101:10584-9, 2004. Peptides were dissolved to 2 mM in 0.25% DMSO and diluted accordingly, while β2-microglobulin was dissolved in 25 mM sodium acetate, 25 mM sodium phosphate, pH 2.4. For the 5:1::peptide:β2-microglobulin assay, 10 μL of 430 μM peptide was mixed with 10 μL of 86 μM β2-microglobulin, 7 μl of 25 mM sodium acetate, 25 mM sodium phosphate, pH 2.4 and 3 μL of 1 mM ThT. For the 1:1::peptide:β2-microglobulin assay, 10 μL of 86 μM peptide was mixed with 10 μL of 86 μM (2-microglobulin, 7 μl of 25 mM sodium acetate, 25 mM sodium phosphate, pH 2.4 and 3 μL of 1 mM ThT. For the 1:5::peptide:β2-microglobulin assay, 10 μL of 17.2 μM peptide was mixed with 10 μL of 86 μM β2-microglobulin, 7 μl of 25 mM sodium acetate, 25 mM sodium phosphate, pH 2.4 and 3 μL of 1 mM ThT. ThT fluorescence was measured using a Perkin Elmer Victor^3 V plate reader. Assays were performed in 384-well fluorescence plates in duplicates or triplicates. Samples were incubated at 37° C. ThT fluorescence was measured continuously for 180 minutes. The effect of the peptides and APS was calculated as percentage fibril formation relative to β2-microglobulin alone (100%) at the end of 180 minutes.

ADH, sequence (P00327 whole entry): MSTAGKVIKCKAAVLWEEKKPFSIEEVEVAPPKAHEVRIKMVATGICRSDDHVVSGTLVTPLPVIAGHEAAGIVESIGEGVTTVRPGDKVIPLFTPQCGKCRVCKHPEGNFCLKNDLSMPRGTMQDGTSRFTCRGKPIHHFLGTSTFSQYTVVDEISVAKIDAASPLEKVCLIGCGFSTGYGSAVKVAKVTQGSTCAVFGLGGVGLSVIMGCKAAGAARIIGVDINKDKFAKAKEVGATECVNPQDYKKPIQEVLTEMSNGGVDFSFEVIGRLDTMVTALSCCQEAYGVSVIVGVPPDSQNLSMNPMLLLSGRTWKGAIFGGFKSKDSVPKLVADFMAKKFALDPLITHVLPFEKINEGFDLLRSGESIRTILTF
T2 sequence (P61769 21-119): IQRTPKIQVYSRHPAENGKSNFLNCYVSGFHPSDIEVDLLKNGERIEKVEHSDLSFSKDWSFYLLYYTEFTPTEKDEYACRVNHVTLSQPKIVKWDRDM

For DRFSVNLDVKHFS, the “percent protection against thermal aggregation of βH crystallin” value in the assay with βH crystallin was “approximately 30%”. The “percent protection against thermal aggregation of ADH” value in the assay with ADH is “approximately 30%”.
For HGKHEERQDE, in the assay on βH crystallin, the “percent protection against thermal aggregation of βH crystallin” value was “No protection”. For the same sequence, the “percent protection against thermal aggregation of CS” value in the assay with CS is listed as “partial protection”. For the same sequence, the “effect on β2-microglobulin fibril formation, overall” value in the assay with β2-microglobulin (β2m) was “most effective inhibitors”. The “percent protection against thermal aggregation of ADH” value with ADH is reported as “No protection”.
For LTITSSLSSDGV, the “effect on β2-microglobulin fibril formation, overall” value with β2-microglobulin (β2m) is recorded as “most effective inhibitors”.

The record behind these values is patent publication US20070185028A1, “Compositions and methods for treatment of protein misfolding and protein aggregation diseases” (priority 2004, published 2007).
